Assay results published in PMC5374433, “Theranostic Value of Multimers: Lessons Learned from Trimerization of Neurotensin Receptor Ligands and Other Targeting Vectors” (Pharmaceuticals, 2017).
Read-outs that look alike come from different tables or passages of the source.

How the values were obtained:
human NTS1 = human NTS1 (Homo sapiens, UniProt P30989); experiment: Competitive radioligand binding assay, NTS1; settings: Ki (NTS1, nM), membranes of CHO cells stably expressing human NTS1; mean ± SEM, 4-8 experiments
Sequence of human NTS1 (P30989 whole entry): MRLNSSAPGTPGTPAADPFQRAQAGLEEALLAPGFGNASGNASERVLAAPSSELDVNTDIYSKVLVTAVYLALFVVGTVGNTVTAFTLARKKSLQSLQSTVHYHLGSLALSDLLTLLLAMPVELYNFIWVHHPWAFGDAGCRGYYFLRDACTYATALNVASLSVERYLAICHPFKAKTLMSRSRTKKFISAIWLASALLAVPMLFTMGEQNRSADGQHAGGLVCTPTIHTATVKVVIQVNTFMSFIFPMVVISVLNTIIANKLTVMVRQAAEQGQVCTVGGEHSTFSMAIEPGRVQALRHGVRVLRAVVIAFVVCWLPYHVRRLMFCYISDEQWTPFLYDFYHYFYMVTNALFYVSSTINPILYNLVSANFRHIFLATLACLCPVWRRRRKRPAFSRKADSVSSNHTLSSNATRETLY
Procedure: Receptor binding data were performed as described previously. […] NTS2 binding was conducted using homogenates of membranes from HEK 293 cells transiently transfected with pcDNA3.1 carrying the human NTS2 gene (Missouri S&T cDNA Resource Center (UMR), Rolla, MO, USA) using the Mirus TransIT-293 transfection reagent (MoBiTec, Göttingen, Germany) according to the manufacturer’s protocol.
Data analysis of the competition binding curves from the radioligand displacement experiments was done by non-linear regression analysis when applying the algorithms of the PRISM 6.0 software package (GraphPad Software, San Diego, CA, USA). EC50 values were derived from each dose-response curve and were subsequently transformed into the corresponding Ki values by applying the equation of Cheng and Prusoff. Mean Ki values and the corresponding S.E.M. values (standard error of the mean) were determined by analyzing four to eight individual experiments.

[1] = Biodistribution in HT29 tumor-bearing nude mice; format: in vivo, mouse; settings: mouse; for tissue uptake at 1.5 h / tissue uptake at 1 h: in vivo
Procedure: (§1) For in vivo evaluation of [^68Ga]Ga-TRAP(NT4)3 the NTS1-positive human colorectal adenocarcinoma cells HT29 were injected in nude mice to generate a subcutaneous tumor. The radioligand was injected in the tail vein of the mice and the biodistribution was determined 60 and 90 min after tracer injection. […] The clearance rate of [^68Ga]Ga-TRAP(NT4)3 in these excretion organs was apparently low. […] (1.44 %ID/g). Blocking experiments were performed to confirm the specificity of the tumor uptake of [^68Ga]Ga-TRAP(NT4)3 in vivo. Therefore, TRAP(NT4)3 (20 nmol) or NT4 (100 nmol) were co-injected together with the radiotracer to define the nonspecific uptake of the tracer in the tumor region. […] Apart from the intestine, the uptake in all other organs was not affected by the blocking substances (Table 2), confirming the receptor-mediated uptake of [^68Ga]Ga-TRAP(NT4)3, as it was reported that NTS receptors are expressed in the small intestine of mice.
(§2) All animal experiments were performed in compliance with the protocols approved by the local Animal Protection Authorities (Regierung Mittelfranken, Germany, no. 54-2532.1-15/08). Female athymic NMRI nude mice (nu/nu) were obtained from Harlan Winkelmann GmbH (Borchen, Germany) at four weeks of age and were kept under standard conditions (12 h light/dark) with food and water available ad libitum for at least five weeks. HT29 tumors were generated as described before.
(§3) HT29 xenografted nude mice were injected with [^68Ga]Ga-TRAP(NT4)3 into a tail vein (2.5–7.5 MBq/mouse). The animals were killed by cervical dislocation 60 or 90 min p.i. The tumors, other tissues (lung, liver, kidneys, heart, spleen, brain, muscle, femur, and intestine) and blood were removed and weighed. Radioactivity of the samples was measured using a γ-counter and expressed as the percentage of injected dose per gram of tissue (%ID/g), from which tumor-to-blood ratios were calculated. Blocking experiments were carried out by co-injecting randomly chosen mice with TRAP(NT4)3 (20 nmol/mouse) or NT4 (100 nmol/mouse) together with the radiotracer. These mice were killed by cervical dislocation at 60 min p.i., and organs and tissue were removed, weighed, and counted as described above.

[2] = system: HT29 xenografted nude mice; experiment: Biodistribution in HT29 tumor-bearing nude mice; format: in vivo, mouse
Procedure: as §1, §2, §3

[3] = format: in vivo; settings: mouse blood sample taken 5 min after injection, HPLC
Procedure: The in vivo stability of [^68Ga]Ga-TRAP(NT4)3 was measured from a blood sample taken 5 min after injection in mice. […] Unfortunately, it was not possible to determine the stability at later time points due to the low amount of residual radioactivity in the blood.

[4] = Small animal PET imaging of HT29 tumor-bearing mice; settings: mouse, in vivo, molar radioactivities of more than 20 MBq/nmol, read-out: highest tumor uptake values by PET
Procedure: The highest tumor uptake values of approximately 2 %ID/g were determined with molar radioactivities of more than 20 MBq/nmol. […] Considering all eight mice, which were repeatedly measured by PET with varying molar radioactivities of [^68Ga]Ga-TRAP(NT4)3, a good correlation of molar radioactivity and tumor uptake could be observed (Figure 4b; r = 0.713, Spearman correlation, p < 0.0004).
PET scans and image analysis were performed using a small-animal PET scanner (Inveon, Siemens Medical Solutions, Erlangen, Germany). About 1.5–4 MBq of [^68Ga]Ga-TRAP(NT4)3 with varying amounts of 0.02–10 nmol TRAP(NT4)3 were intravenously injected into the mice under isoflurane anesthesia (4%). Animals were subjected to a 60 min dynamic scan starting with tracer injection. After iterative maximum a posteriori image reconstruction of the decay- and attenuation-corrected images, regions of interest (ROIs) were drawn over the tumor. The radioactivity concentration within the tumor region was obtained from the mean value within the multiple ROIs and then converted to SUV relative to the injected dose and the individual body weight.

Q: For CC(C)C[C@H](NC(=O)[C@@H](NC(=O)[C@H](Cc1ccc(O)cc1)NC(=O)[C@@H]1CCCN1C(=O)[C@H](CCCCN)NC(=O)CN(CCCCN)C(=O)[C@@H](N)CCCCn1cc(CNC(=O)CCP(=O)(O)CN2CCN(CP(=O)(O)CCC(=O)NCc3cn(CCCC[C@H](N)C(=O)N(CCCCN)CC(=O)N[C@@H](CCCCN)C(=O)N4CCC[C@H]4C(=O)N[C@@H](Cc4ccc(O)cc4)C(=O)N[C@H](C(=O)N[C@@H](CC(C)C)C(=O)O)C(C)(C)C)nn3)CCN(CP(=O)(O)CCC(=O)NCc3cn(CCCC[C@H](N)C(=O)N(CCCCN)CC(=O)N[C@@H](CCCCN)C(=O)N4CCC[C@H]4C(=O)N[C@@H](Cc4ccc(O)cc4)C(=O)N[C@H](C(=O)N[C@@H](CC(C)C)C(=O)O)C(C)(C)C)nn3)CC2)nn1)C(C)(C)C)C(=O)O (single isomer, unassigned) [[^68Ga]Ga-TRAP(NT4)3, metal not drawn], which Ki (human NTS1) is on record?
A: 0.1 nM

Q: And the tissue to tissue ratio at 1 h ([1]; female, athymic NMRI nude (nu/nu), HT29 tumor / blood, iv, total radioactivity, 60 min p.i.)?
A: 13

Q: What about the tissue to tissue ratio at 1.5 h ([1]; female, athymic NMRI nude (nu/nu), HT29 tumor / blood, iv, total radioactivity, 90 min p.i.) of the same molecule?
A: 36

Q: What about the SUV at 1 h ([1]; female, athymic NMRI nude (nu/nu), HT29 tumor, iv, total radioactivity, 60 min p.i., equals 1.7 %ID/g) of the same molecule?
A: ~0.7 SUV

Q: And the tissue uptake at 1.5 h ([1]; 60 and 90 min p.i., read-out: uptake in the liver)?
A: 11 to 12 %ID/g

Q: What about the tissue uptake at 1.5 h ([1]; 60 and 90 min p.i., read-out: uptake values in the kidneys) of the same molecule?
A: 55 to 102 %ID/g

Q: And the tissue uptake at 1 h ([1]; 60 min p.i., blocking: co-injection of NT4 (100 nmol per mouse), read-out: HT29 tumor uptake)?
A: 0.6 ± 0.13 %ID/g

Q: What about the tissue uptake at 1 h ([1]; 60 min p.i., blocking: co-injection of NT4 (100 nmol per mouse), read-out: blood uptake) of the same molecule?
A: 0.4 ± 0.01 %ID/g

Q: And the tissue uptake at 1 h ([1]; 60 min p.i., blocking: co-injection of NT4 (100 nmol per mouse), read-out: brain uptake)?
A: 0.07 ± 0.02 %ID/g

Q: And the tissue uptake at 1 h ([1]; 60 min p.i., blocking: co-injection of NT4 (100 nmol per mouse), read-out: femur uptake)?
A: 1.72 ± 0.12 %ID/g

Q: And the tissue uptake at 1 h ([1]; 60 min p.i., blocking: co-injection of NT4 (100 nmol per mouse), read-out: heart uptake)?
A: 0.45 ± 0.13 %ID/g

Q: And the tissue uptake at 1 h ([1]; 60 min p.i., blocking: co-injection of NT4 (100 nmol per mouse), read-out: intestine uptake)?
A: 0.49 ± 0.07 %ID/g

Q: What about the tissue uptake at 1 h ([1]; 60 min p.i., blocking: co-injection of NT4 (100 nmol per mouse), read-out: kidney uptake) of the same molecule?
A: 99.9 ± 15.5 %ID/g

Q: What about the tissue uptake at 1 h ([1]; 60 min p.i., blocking: co-injection of NT4 (100 nmol per mouse), read-out: liver uptake) of the same molecule?
A: 11.2 ± 2.27 %ID/g

Q: And the tissue uptake at 1 h ([1]; 60 min p.i., blocking: co-injection of NT4 (100 nmol per mouse), read-out: lung uptake)?
A: 6.06 ± 1.19 %ID/g

Q: What about the tissue uptake at 1 h ([1]; 60 min p.i., blocking: co-injection of NT4 (100 nmol per mouse), read-out: muscle uptake) of the same molecule?
A: 0.16 ± 0.03 %ID/g

Q: And the tissue uptake at 1 h ([1]; 60 min p.i., blocking: co-injection of NT4 (100 nmol per mouse), read-out: spleen uptake)?
A: 3.75 ± 0.81 %ID/g

Q: What about the tissue uptake at 1 h ([1]; 60 min p.i., blocking: co-injection of TRAP(NT4)3 (20 nmol per mouse), read-out: HT29 tumor uptake) of the same molecule?
A: 1.1 ± 0.2 %ID/g

Q: What about the tissue uptake at 1 h ([1]; 60 min p.i., blocking: co-injection of TRAP(NT4)3 (20 nmol per mouse), read-out: blood uptake) of the same molecule?
A: 0.07 ± 0.01 %ID/g

Q: What about the tissue uptake at 1 h ([1]; 60 min p.i., blocking: co-injection of TRAP(NT4)3 (20 nmol per mouse), read-out: brain uptake) of the same molecule?
A: 0.06 ± 0.07 %ID/g

Q: And the tissue uptake at 1 h ([1]; 60 min p.i., blocking: co-injection of TRAP(NT4)3 (20 nmol per mouse), read-out: femur uptake)?
A: 0.74 ± 0.14 %ID/g

Q: What about the tissue uptake at 1 h ([1]; 60 min p.i., blocking: co-injection of TRAP(NT4)3 (20 nmol per mouse), read-out: heart uptake) of the same molecule?
A: 0.15 ± 0.11 %ID/g

Q: What about the tissue uptake at 1 h ([1]; 60 min p.i., blocking: co-injection of TRAP(NT4)3 (20 nmol per mouse), read-out: intestine uptake) of the same molecule?
A: 0.49 ± 0.08 %ID/g

Q: And the tissue uptake at 1 h ([1]; 60 min p.i., blocking: co-injection of TRAP(NT4)3 (20 nmol per mouse), read-out: kidney uptake)?
A: 96.3 ± 8.83 %ID/g

Q: And the tissue uptake at 1 h ([1]; 60 min p.i., blocking: co-injection of TRAP(NT4)3 (20 nmol per mouse), read-out: liver uptake)?
A: 8.3 ± 0.87 %ID/g

Q: And the tissue uptake at 1 h ([1]; 60 min p.i., blocking: co-injection of TRAP(NT4)3 (20 nmol per mouse), read-out: lung uptake)?
A: 1.61 ± 0.42 %ID/g

Q: And the tissue uptake at 1 h ([1]; 60 min p.i., blocking: co-injection of TRAP(NT4)3 (20 nmol per mouse), read-out: muscle uptake)?
A: 0.1 ± 0.05 %ID/g

Q: What about the tissue uptake at 1 h ([1]; 60 min p.i., blocking: co-injection of TRAP(NT4)3 (20 nmol per mouse), read-out: spleen uptake) of the same molecule?
A: 2.2 ± 0.39 %ID/g

Q: And the tissue uptake at 1 h ([1]; 60 min p.i., read-out: HT29 tumor uptake)?
A: 1.7 %ID/g

Q: And the tissue uptake at 1 h ([1]; 60 min p.i., read-out: blood uptake)?
A: 0.13 ± 0.02 %ID/g

Q: And the tissue uptake at 1 h ([1]; 60 min p.i., read-out: brain uptake)?
A: 0.04 ± 0.01 %ID/g

Q: What about the tissue uptake at 1 h ([1]; 60 min p.i., read-out: femur uptake) of the same molecule?
A: 1.51 ± 0.12 %ID/g

Q: And the tissue uptake at 1 h ([1]; 60 min p.i., read-out: heart uptake)?
A: 0.13 ± 0.02 %ID/g

Q: What about the tissue uptake at 1 h ([1]; 60 min p.i., read-out: intestine uptake) of the same molecule?
A: 1.5 ± 0.42 %ID/g

Q: And the tissue uptake at 1 h ([1]; 60 min p.i., read-out: kidney uptake)?
A: 94.5 ± 10.8 %ID/g

Q: And the tissue uptake at 1 h ([1]; 60 min p.i., read-out: liver uptake)?
A: 11.2 ± 0.3 %ID/g

Q: What about the tissue uptake at 1 h ([1]; 60 min p.i., read-out: lung uptake) of the same molecule?
A: 2.76 ± 0.53 %ID/g

Q: What about the tissue uptake at 1 h ([1]; 60 min p.i., read-out: muscle uptake) of the same molecule?
A: 0.09 ± 0.03 %ID/g

Q: And the tissue uptake at 1 h ([1]; 60 min p.i., read-out: spleen uptake)?
A: 3.72 ± 0.09 %ID/g

Q: And the tissue uptake at 1.5 h ([1]; 90 min p.i., read-out: HT29 tumor uptake)?
A: 1.44 ± 0.13 %ID/g

Q: And the tissue uptake at 1.5 h ([1]; 90 min p.i., read-out: blood uptake)?
A: 0.04 ± 0.02 %ID/g

Q: What about the tissue uptake at 1.5 h ([1]; 90 min p.i., read-out: brain uptake) of the same molecule?
A: 0.02 ± 0.01 %ID/g

Q: What about the tissue uptake at 1.5 h ([1]; 90 min p.i., read-out: femur uptake) of the same molecule?
A: 1.17 ± 0.21 %ID/g

Q: What about the tissue uptake at 1.5 h ([1]; 90 min p.i., read-out: heart uptake) of the same molecule?
A: 0.35 ± 0.37 %ID/g

Q: And the tissue uptake at 1.5 h ([1]; 90 min p.i., read-out: intestine uptake)?
A: 1.31 ± 0.2 %ID/g

Q: And the tissue uptake at 1.5 h ([1]; 90 min p.i., read-out: kidney uptake)?
A: 102 ± 29.9 %ID/g

Q: What about the tissue uptake at 1.5 h ([1]; 90 min p.i., read-out: liver uptake) of the same molecule?
A: 11.7 ± 0.48 %ID/g

Q: What about the tissue uptake at 1.5 h ([1]; 90 min p.i., read-out: lung uptake) of the same molecule?
A: 2.37 ± 0.21 %ID/g

Q: And the tissue uptake at 1.5 h ([1]; 90 min p.i., read-out: muscle uptake)?
A: 0.11 ± 0.08 %ID/g

Q: And the tissue uptake at 1.5 h ([1]; 90 min p.i., read-out: spleen uptake)?
A: 3.45 ± 0.38 %ID/g

Q: What about the HT29 tumor uptake ([2]; 60 min p.i.) of the same molecule?
A: 1.74 ± 0.21 %ID/g

Q: What about the “tumor uptake compared to monomeric analogs” value ([2]; HT29 tumor) of the same molecule?
A: two-fold

Q: What about the “formation of a more hydrophilic radiometabolite” value [3] of the same molecule?
A: 8%

Q: What about the tissue uptake [4] of the same molecule?
A: ~2 %ID/g
